Biological target: the molecule itself
Assay: SEC

B1: streptococcal coaggregation regulator (ScaR) (natural protein, Streptococcus gordonii, UniProt Q9RFN3 1-215, looked up)
chain: MTPNKEDYLKCLYELGTRHNKITNKEIAQLMQVSPPAVTEMMKKLLAEELLIKDKKAGYLLTDLGLKLVSDLYRKHRLIEVFLVHHLGYTTEEIHEEAEVLEHTVSDHFVERLDQLLDYPKACPHGGTIPAKGELLVEKHKLTLEEAKEKGDYILARVHDNFDLLTYLERNGLQVGKTIRFLGYDDFSHLYSLEVDGQEIQLAQPIAQQIYVEKI
  stoichiometry N: 2
